Experimental findings from US8679782B2, “Production of triacylglycerides, fatty acids, and their derivatives” (Massachusetts Institute of Technology, priority 2009, dated 2014) are described below.

Series [1] is described as follows: NAD(P)H-dependent glyceraldehyde 3-phosphate dehydrogenase (ND-G3PDH) activity assay. Format: biochemical. The settings on record: purified histidine-tagged protein vs empty vector fractions; G3P and NAD(P)+. The protocol: NP-G3PDH activity was assayed as previously described with minor modifications (9). Briefly, reactions contained 1 mM NAD(P)+, 1 mM glyceraldehyde 3-phosphate and either […] of purified TadD or […] of crude bacterial lysate in a final volume of 1 ml. Reactions were incubated at 37° C. for one hour. Following incubation, the optical density of the reactions was measured at 340 nm. R. opacus cultures were grown in either lysogeny broth or MR medium supplemented with 4% glucose and 0.15% ammonium sulphate for 24 hours prior to mechanical disruption using a French pressure cell. Cellular debris was pelted by centrifugation at 20,000×g for 30 minutes.
Additionally, we fractionated supernatant from E. coli containing the parental plasmid which was used as an empty vector control. Fractions containing the histidine tagged TadD protein (and the corresponding fractions from the empty vector fractionation) were then used in ND-G3PDH activity assays.

Series [2] in a line: Heparin-sepharose binding. On the procedure:
Purified TadA was diluted to a final concentration of 500 μg/ml in dialysis buffer. 100 mg of Heparin-sepharose CL-6B (GE Healthcare, Piscataway, N.J.) was resuspended in 5 ml of Tris buffer (20 mM Tris (pH7.0), 100 mM NaCl) and allowed to rehydrate with gentle agitation for 1 h. Following rehydration, the resin was pelleted via centrifugation at 1000×g for 2 minutes and subsequently washed 3 times in the same buffer. The resin was resuspended in 1 ml of Tris buffer to which 500 μg of purified TadA was added. The Sepharose-TadA slurry was incubated at 4° C. for 1 h with gentle agitation. Following incubation, the resin was pelleted, an aliquot of the supernatant was removed (flow-through fraction), the Sepharose was washed 5 times with Tris buffer and an aliquot of the supernatant from the final wash was removed (wash fraction). The remaining heparin-sepharose was resuspended in 1 ml of Tris buffer from which an aliquot was removed (beads fraction). 5× SDS-PAGE loading buffer was added to each aliquot, which were then boiled for 5 min. Samples were resolved using 10% acrylamide Ready gel Tris-HCl SDS-PAGE gels (Bio-Rad, Hercules, Calif.) and stained using colloidal coomassie as previously described (18, 31).

The subject of another series is yeast. The series can be described thus: Yeast agglutination assay. Format: cell-based. The settings on record: FIG. 85.
Series [3] has as its system purified lipid bodies. Briefly: Lipid aggregation assay with purified lipid bodies. In kind it is biochemical, R. opacus PD630. The protocol: Lipid bodies were purified from R. opacus PD630 as previously described (27) with minor modifications. Briefly, R. opacus was grown for 96 h in minimal media supplemented with 4% glucose and 0.15% ammonium sulphate. Cultures were harvested via centrifugation at 6000×g for 20 minutes. Cell pellets were resuspended in 25 ml of PBS and lysed by passing through a French pressure cell set at 18,000 psi 5 times. An equal volume of 80% glycerol was added to lysates followed by centrifugation at 6000×g for 3 h at 4° C. Following centrifugation, the upper layer (lipid body fraction) was removed to 40 ml of 40% glycerol (tube #1) and the pellet (cell debris) was resuspended in 40 ml of 40% glycerol (tube #2) followed by a second centrifugation at 6000×g for 3 h. The lipid body layer (upper layer) from tube #1 was removed to 20 ml PBS and the cell debris (pellet) from tube #2 was resuspended in 20 ml of PBS followed by centrifugation at 7500×g for 30 min. All fractions were then resuspended in 5 ml of PBS and used immediately. […] Wells were imaged using a Canon Powershot SD1200 IS digital camera (Canon, Lake Success, N.Y.). To obtain a more quantitative measure of aggregation, 2 μl of the supernatant was removed from each well and the optical density at 600 nm was determined using a Nano-Drop spectrophotometer (Thermo Scientific, Wilmington, Del.).

For series [4], the system named is purified lipid bodies. Briefly: Western blotting of lipid bodies from the aggregation assay. In kind it is binding, R. opacus PD630. The settings on record: supernatant and washed lipid body fractions. For orientation: A western blot detects proteins with antibodies after separation by electrophoresis.

B1: TadD: R. opacus PD630 non-phosphorylating NAD(P)+-dependent glyceraldehyde 3-phosphate dehydrogenase homolog, SEQ ID NO:4 (protein, listed as Rhodoccus opacus)
chain: MSIAADSLSNITPPGLTIDGEITTTAAVIPVINPATESAFIEVPDAGVEQLDAAVSAARRAAKHWATHDLPFRQGIVLRLVDHVRANIDELARLVTLEQGKPLAKAAGEIESGLRGLERYASWDIPVEVIRDNDDELIEVHRAPVGVVGGITAWNYPLLLALWKIGPALITGNPIIVKPSPLTPVATLRLGELAQQILPPGVLQVLSGGDDLGRAMTAHTGIDKITFTGSERAGKSIMAGAGATLKRLTLELGGNDPGIVLDDVDVASIAADLYWGALSNCGQVCAGLKRLYVPQHLAPAIEEALAEVAKGVKVGNGLDDGVDMGPVQNAAQFTKVRGYVDDAANRGADVYFRGEVPEGPGYFHPVTLVRGVDDSVPLVREEQFGPVLPILTYTDIDDVIARANDSELALGASVWSSDEQRATEVAERVEAGTVWVNQHPMLSSDVPFGGVKQSGLGVEQSIHGVLEYTNYRVLRVKR
Take B1: in series [1], the “NAD(P)H formation (increase in optical density at 340 nm)” value is on record as “significantly more NAD(P)H”.

B2: TadA: R. opacus PD630 heparin-binding hemagglutinin homolog, SEQ ID NO:11 (protein, listed as Rhodoccus opacus)
chain: MTDQKTIDSVKTSLYAAVGAGDVVVQAVADVVAQVRSRAESTQGDVEERVGGAKERIAGLQEEVTEGVENLRDRLAGLPSELPEELAELREKFTADELRKVAEAYLKVASDLYTSLAERGEDTVERIRKQPVVEEGIGRAETAFGDAVELTEEALGTVARQTRAVGEQAAKLAGRASGRISDTAEGLGEAIADAGDEAALKVLDLGDQAEEASKDAADRVAATAADVQAQADKAAQAKHAAPAKKAAPAKAAATPAPAPAKKVAAPAKKAAPAKKA
For B2, the “binding to heparin-sepharose in the presence of pure heparin” value in series [2] (control with pure heparin) is “completely abrogated any binding”. Moreover, in series [2] (purified hexa-histidine protein), the “binding to heparin-sepharose (SDS-PAGE of flow through, wash, beads)” value was “the majority of the protein was found associated with the heparin-sepharose”. Further, the yeast agglutination result in the series on yeast is recorded as “yeast agglutination mediated by TadA”. Moreover, in the series with purified lipid bodies [3] (2 μl supernatant from each well), the “optical density at 600 nm of the supernatants” value is on record as “decreases as protein concentration increases”. Moreover, the “lipid body aggregation and flocculation (96 well dish)” value in the series with purified lipid bodies [3] (increasing protein concentrations, 12 h room temperature) was “capable of inducing lipid body aggregation and subsequent flocculation in a dose-dependent manner”. Further, the “size of lipid body aggregates (Nile Red fluorescent microscopy)” value in the series with purified lipid bodies [3] (samples from the aggregation assay) was “aggregated into very large clumps”. The “association with lipid bodies (anti-penta-histidine Western blot)” value in the series with purified lipid bodies [4] is “detected in both the supernatant as well as the lipid body fractions”.
